According to patent US9896495 (ZEALAND PHARMA A S, dated 2018):
*1 amine or outer side, *2 acyl side, *3 side chain or, on linkers, in order; H or OH if unused. Side-chain parts run from the residue outwards. [ ]: non-standard residue; d: D form. The star is where a group is joined. C18 diacid = O=C(O)CCCCCCCCCCCCCCCCC(=O)*; γGlu = O=C(O)[C@H](CCC(=O)[*:2])N[*:1]; Ac4c = NC1(C(=O)O)CCC1; Aib = CC(C)(N)C(=O)O

T1: endogenous GLP-1 receptor of a murine insulinoma cell line (murine, UniProt O35659 22-463)
T1 sequence (looked up): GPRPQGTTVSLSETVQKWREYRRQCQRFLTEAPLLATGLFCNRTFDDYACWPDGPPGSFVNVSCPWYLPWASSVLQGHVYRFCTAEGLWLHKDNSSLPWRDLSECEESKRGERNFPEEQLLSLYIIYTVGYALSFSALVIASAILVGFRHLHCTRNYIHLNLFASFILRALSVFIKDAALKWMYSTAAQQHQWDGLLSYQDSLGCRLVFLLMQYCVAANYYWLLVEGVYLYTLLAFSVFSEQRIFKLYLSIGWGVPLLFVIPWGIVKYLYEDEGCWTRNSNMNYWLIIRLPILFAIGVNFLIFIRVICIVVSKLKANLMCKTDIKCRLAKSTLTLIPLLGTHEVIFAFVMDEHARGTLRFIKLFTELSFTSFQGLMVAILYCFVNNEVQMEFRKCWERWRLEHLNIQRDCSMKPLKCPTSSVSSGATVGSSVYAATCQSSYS

B1: H-H-Aib-QGTFTSDYSKYLDS-K([15-carboxy-pentadecanoyl]-isoGlu)-AAHDFVEWLLSA-NH2 (peptide)
peptide: HXQGTFTSDYSKYLDSKAAHDFVEWLLSA
modifications: Aib at position 2; Lys 17 side chain conjugated to [15-carboxy-pentadecanoyl]-isoGlu; C-terminal amide
B2: H-H-Aib-QGTFTSDYSKYLD-K([17-carboxy-heptadecanoyl]-isoGlu-GSGSGG)-RAAKDFIEWLESA-NH2 (peptide)
peptide: HXQGTFTSDYSKYLDKRAAKDFIEWLESA
modifications: Aib at position 2; Lys 16 side chain conjugated to [17-carboxy-heptadecanoyl]-isoGlu-GSGSGG; C-terminal amide
B3: H-H-Aib-QGTFTSDYSKYLE-K([17-carboxy-heptadecanoyl]-isoGlu-GSGSGG)-RAAKDFIEWLESA-NH2 (peptide)
peptide: HXQGTFTSDYSKYLEKRAAKDFIEWLESA
modifications: Aib at position 2; Lys 16 side chain conjugated to [17-carboxy-heptadecanoyl]-isoGlu-GSGSGG; C-terminal amide
B4: H-H-Ac4c-QGTFTSDYSKYLD-K([17-carboxy-heptadecanoyl]-isoGlu-GSGSGG)-RAAKDFIEWLESA-NH2 (peptide)
peptide: HXQGTFTSDYSKYLDKRAAKDFIEWLESA
modifications: Ac4c at position 2; Lys 16 side chain conjugated to [17-carboxy-heptadecanoyl]-isoGlu-GSGSGG; C-terminal amide
B5: H-H-Aib-QGTFTSDYSKYLE-K([17-carboxy-heptadecanoyl]-isoGlu-Peg3-Peg3)-RAAHDFIEWLESA-NH2 (peptide)
peptide: H-H[Aib]QGTFTSDYSKYLEK([Peg3-Peg3-γGlu-C18 diacid])RAAHDFIEWLESA-NH2
B6: H-H-Ac4c-HGTFTSDYSKYLDE-K([17-carboxy-heptadecanoyl]-isoGlu-Peg3-Peg3)-RAKDFIEWLESA-NH2 (peptide)
peptide: H-H[Ac4c]HGTFTSDYSKYLDEK([Peg3-Peg3-γGlu-C18 diacid])RAKDFIEWLESA-NH2
B7: H-H-Aib-QGTFTSDYSKYLDE-K([17-carboxy-heptadecanoyl]-isoGlu)-AAKDFIEWLESA-NH2 (peptide)
peptide: HXQGTFTSDYSKYLDEKAAKDFIEWLESA
modifications: Aib at position 2; Lys 17 side chain conjugated to [17-carboxy-heptadecanoyl]-isoGlu; C-terminal amide
B8: H-H-Ac4c-QGTFTSDYSKYLDE-K([17-carboxy-heptadecanoyl]-isoGlu)-AAKDFIEWLESA-NH2 (peptide)
peptide: H-H[Ac4c]QGTFTSDYSKYLDEK([γGlu-C18 diacid])AAKDFIEWLESA-NH2
SMILES: CC[C@H](C)[C@H](NC(=O)[C@H](Cc1ccccc1)NC(=O)[C@H](CC(=O)O)NC(=O)[C@H](CCCCN)NC(=O)[C@H](C)NC(=O)[C@H](C)NC(=O)[C@H](CCCCNC(=O)CC[C@H](NC(=O)CCCCCCCCCCCCCCCCC(=O)O)C(=O)O)NC(=O)[C@H](CCC(=O)O)NC(=O)[C@H](CC(=O)O)NC(=O)[C@H](CC(C)C)NC(=O)[C@H](Cc1ccc(O)cc1)NC(=O)[C@H](CCCCN)NC(=O)[C@H](CO)NC(=O)[C@H](Cc1ccc(O)cc1)NC(=O)[C@H](CC(=O)O)NC(=O)[C@H](CO)NC(=O)[C@@H](NC(=O)[C@H](Cc1ccccc1)NC(=O)[C@@H](NC(=O)CNC(=O)[C@H](CCC(N)=O)NC(=O)C1(NC(=O)[C@@H](N)Cc2c[nH]cn2)CCC1)[C@@H](C)O)[C@@H](C)O)C(=O)N[C@@H](CCC(=O)O)C(=O)N[C@@H](Cc1c[nH]c2ccccc12)C(=O)N[C@@H](CC(C)C)C(=O)N[C@@H](CCC(=O)O)C(=O)N[C@@H](CO)C(=O)N[C@@H](C)C(N)=O
B9: H-H-Ac4c-QGTFTSDYSKYLDE-K([17-carboxy-heptadecanoyl]-isoGlu)-RAKDFIEWLESA-NH2 (peptide)
peptide: H-H[Ac4c]QGTFTSDYSKYLDEK([γGlu-C18 diacid])RAKDFIEWLESA-NH2
SMILES: CC[C@H](C)[C@H](NC(=O)[C@H](Cc1ccccc1)NC(=O)[C@H](CC(=O)O)NC(=O)[C@H](CCCCN)NC(=O)[C@H](C)NC(=O)[C@H](CCCNC(=N)N)NC(=O)[C@H](CCCCNC(=O)CC[C@H](NC(=O)CCCCCCCCCCCCCCCCC(=O)O)C(=O)O)NC(=O)[C@H](CCC(=O)O)NC(=O)[C@H](CC(=O)O)NC(=O)[C@H](CC(C)C)NC(=O)[C@H](Cc1ccc(O)cc1)NC(=O)[C@H](CCCCN)NC(=O)[C@H](CO)NC(=O)[C@H](Cc1ccc(O)cc1)NC(=O)[C@H](CC(=O)O)NC(=O)[C@H](CO)NC(=O)[C@@H](NC(=O)[C@H](Cc1ccccc1)NC(=O)[C@@H](NC(=O)CNC(=O)[C@H](CCC(N)=O)NC(=O)C1(NC(=O)[C@@H](N)Cc2c[nH]cn2)CCC1)[C@@H](C)O)[C@@H](C)O)C(=O)N[C@@H](CCC(=O)O)C(=O)N[C@@H](Cc1c[nH]c2ccccc12)C(=O)N[C@@H](CC(C)C)C(=O)N[C@@H](CCC(=O)O)C(=O)N[C@@H](CO)C(=O)N[C@@H](C)C(N)=O
B10: H-H-Ac4c-QGTFTSDYSKYLDERAAKDFI-K([17-carboxy-heptadecanoyl]-isoGlu-GSGSGG)-WLESA-NH2 (peptide)
peptide: H-H[Ac4c]QGTFTSDYSKYLDERAAKDFIKWLESA-NH2
modifications: not fully specified (residue 24)
B11: H-H-Ac4c-QGTFTSDYSKYLDERRAKDFI-K([17-carboxy-heptadecanoyl]-isoGlu-GSGSGG)-WLESA-NH2 (peptide)
peptide: HXQGTFTSDYSKYLDERRAKDFIKWLESA
modifications: Ac4c at position 2; Lys 24 side chain conjugated to [17-carboxy-heptadecanoyl]-isoGlu-GSGSGG; C-terminal amide
B12: H-H-Ac4c-QGTFTSDYSKYLDERAAKDFIEWLE-K([17-carboxy-heptadecanoyl]-isoGlu-GSGSGG)-A-NH2 (peptide)
peptide: HXQGTFTSDYSKYLDERAAKDFIEWLEKA
modifications: Ac4c at position 2; Lys 28 side chain conjugated to [17-carboxy-heptadecanoyl]-isoGlu-GSGSGG; C-terminal amide
B13: H-H-Aib-QGTFTSDYSKYLD-K([17-carboxy-heptadecanoyl]-isoGlu-Peg3-Peg3)-RAAKDFIEWLESA-NH2 (peptide)
peptide: H-H[Aib]QGTFTSDYSKYLDK([Peg3-Peg3-γGlu-C18 diacid])RAAKDFIEWLESA-NH2
B14: H-H-Ac4c-QGTFTSDYSKYLDERRAKDFIEWLE-K([17-carboxy-heptadecanoyl]-isoGlu-GSGSGG)-A-NH2 (peptide)
peptide: HXQGTFTSDYSKYLDERRAKDFIEWLEKA
modifications: Ac4c at position 2; Lys 28 side chain conjugated to [17-carboxy-heptadecanoyl]-isoGlu-GSGSGG; C-terminal amide
B15: H-H-Aib-QGTFTSDYSKYLDERAAKDFI-K([17-carboxy-heptadecanoyl]-isoGlu-GSGSGG)-WLESA-NH2 (peptide)
peptide: HXQGTFTSDYSKYLDERAAKDFIKWLESA
modifications: Aib at position 2; Lys 24 side chain conjugated to [17-carboxy-heptadecanoyl]-isoGlu-GSGSGG; C-terminal amide
B16: H-H-Ac4c-QGTFTSDYSKYLDE-K([17-carboxy-heptadecanoyl]-isoGlu-Peg3-Peg3)-RAKDFIEWLESA-NH2 (peptide)
peptide: H-H[Ac4c]QGTFTSDYSKYLDEK([Peg3-Peg3-γGlu-C18 diacid])RAKDFIEWLESA-NH2

biological target: human glucagon receptor (Glucagon-R) (human, UniProt P47871 26-477); assay: cell-based or functional assay
Sequence (P47871 26-477): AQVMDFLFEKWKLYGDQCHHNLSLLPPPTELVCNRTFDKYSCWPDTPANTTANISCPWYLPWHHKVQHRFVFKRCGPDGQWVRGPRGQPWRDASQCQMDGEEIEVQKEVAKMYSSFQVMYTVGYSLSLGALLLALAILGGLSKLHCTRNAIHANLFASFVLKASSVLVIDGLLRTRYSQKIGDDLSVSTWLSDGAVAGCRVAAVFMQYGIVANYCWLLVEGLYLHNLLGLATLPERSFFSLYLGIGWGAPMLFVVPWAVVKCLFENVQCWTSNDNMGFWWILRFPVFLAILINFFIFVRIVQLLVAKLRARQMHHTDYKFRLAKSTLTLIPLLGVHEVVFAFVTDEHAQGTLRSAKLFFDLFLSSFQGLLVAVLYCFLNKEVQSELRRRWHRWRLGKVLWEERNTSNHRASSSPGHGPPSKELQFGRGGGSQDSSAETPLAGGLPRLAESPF

In order of falling “EC50 hGCGR CHO-K1 [nM] (cAMP, AlphaScreen)” value:
1. B15  1.48 nM
2. B7  1.08 nM
3. B12  0.92 nM
4. B10  0.52 nM
5. B16  0.45 nM
6. B3  0.44 nM
7. B5  0.31 nM
8. B8  0.28 nM
9. B1  0.21 nM
10. B2  0.18 nM
11. B11  0.18 nM
12. B14  0.16 nM
13. B13  0.13 nM
14. B4  0.11 nM
15. B6  0.07 nM
16. B9  0.07 nM

biological target: human glucagon-like peptide 1 receptor (GLP-1R) (human, UniProt P43220 24-463); assay: cell-based or functional assay

In order of rising “EC50 hGLP-1R CHO-K1 [nM] (cAMP, AlphaScreen)” value:
1. B10  0.33 nM
2. B1  0.38 nM
3. B7  0.41 nM
4. B9  0.48 nM
5. B14  0.53 nM
6. B8  0.56 nM
7. B11  0.6 nM
8. B12  0.61 nM
9. B15  0.7 nM
10. B16  0.7 nM
11. B5  0.8 nM
12. B2  0.83 nM
13. B4  0.97 nM
14. B6  0.97 nM
15. B3  1.43 nM
16. B13  1.76 nM

biological target: T1, endogenous GLP-1 receptor of a murine …; assay: cell-based or functional assay

In order of falling “EC50 [nM] (cAMP in a murine insulinoma cell line)” value:
1. B6  0.84 nM
2. B9  0.81 nM
3. B8  0.72 nM
4. B13  0.69 nM
5. B2  0.65 nM
6. B1  0.6 nM
7. B7  0.6 nM
8. B3  0.54 nM
9. B4  0.47 nM
10. B16  0.4 nM
11. B11  0.38 nM
12. B10  0.37 nM
13. B5  0.36 nM
14. B14  0.34 nM
15. B12  0.25 nM
16. B15  0.15 nM

biological target: endogenous glucagon receptor of primary rat hepatocytes (rat, UniProt P30082 27-485); assay: cell-based or functional assay
Sequence (P30082 27-485): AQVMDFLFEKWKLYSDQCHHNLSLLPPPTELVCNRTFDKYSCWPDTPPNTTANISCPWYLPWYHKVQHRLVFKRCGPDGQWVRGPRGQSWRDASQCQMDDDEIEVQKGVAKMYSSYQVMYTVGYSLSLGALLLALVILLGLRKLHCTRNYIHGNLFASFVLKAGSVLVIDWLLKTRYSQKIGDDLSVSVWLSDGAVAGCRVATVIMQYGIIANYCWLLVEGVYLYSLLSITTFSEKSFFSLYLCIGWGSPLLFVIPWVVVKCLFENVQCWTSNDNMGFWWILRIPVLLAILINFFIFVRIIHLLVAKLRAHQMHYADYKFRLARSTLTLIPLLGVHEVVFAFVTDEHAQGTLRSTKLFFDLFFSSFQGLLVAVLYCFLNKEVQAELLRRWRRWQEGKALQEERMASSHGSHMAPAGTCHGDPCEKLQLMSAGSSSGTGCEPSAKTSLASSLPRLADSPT

In order of rising “EC50 [nM] (inhibition of glycogen synthesis rate in primary rat hepatocytes)” value:
1. B6  0.11 nM
2. B13  0.11 nM
3. B11  0.19 nM
4. B14  0.19 nM
5. B2  0.21 nM
6. B5  0.29 nM
7. B4  0.34 nM
8. B10  0.43 nM
9. B9  0.45 nM
10. B3  0.8 nM
11. B1  0.85 nM
12. B15  0.94 nM
13. B8  0.95 nM
14. B7  1.53 nM
15. B16  1.79 nM
16. B12  3.63 nM
